According to PMC3711130:
Like-named read-outs stand apart in the source and are kept apart here.

Key:
[1] = biological target: His-Tm (wild-type α-tropomyosin homodimer with a histidine tag) (rat); assay: cross-linking
[2] = biological target: pyr-actin·D175N-Tm·hcTn thin filament (rabbit | rat | human) (UniProt P68135); assay: stopped-flow fluorescence
[3] = biological target: pyr-actin·E180G-Tm·hcTn thin filament (rabbit | rat | human) (UniProt P68135); assay: stopped-flow fluorescence
[4] = biological target: pyr-actin·WT-D175N-Tm·hcTn thin filament (rabbit | rat | human) (UniProt P68135); assay: stopped-flow fluorescence
[5] = biological target: pyr-actin·WT-E180G-Tm·hcTn thin filament (rabbit | rat | human) (UniProt P68135); assay: stopped-flow fluorescence
[6] = biological target: pyr-actin·WT-Tm·hcTn thin filament (rabbit | rat | human) (UniProt P68135); assay: stopped-flow fluorescence
[7] = biological target: pyr-actin·WT-Tm·hcTn thin filament (rabbit | rat | human) (UniProt P68135); assay: stopped-flow fluorescence; remark: listed apart in the source

Chain of myosin subfragment 1 (native rabbit skeletal) (domain or fragment) (Q28641 whole entry, the tested form may be a part): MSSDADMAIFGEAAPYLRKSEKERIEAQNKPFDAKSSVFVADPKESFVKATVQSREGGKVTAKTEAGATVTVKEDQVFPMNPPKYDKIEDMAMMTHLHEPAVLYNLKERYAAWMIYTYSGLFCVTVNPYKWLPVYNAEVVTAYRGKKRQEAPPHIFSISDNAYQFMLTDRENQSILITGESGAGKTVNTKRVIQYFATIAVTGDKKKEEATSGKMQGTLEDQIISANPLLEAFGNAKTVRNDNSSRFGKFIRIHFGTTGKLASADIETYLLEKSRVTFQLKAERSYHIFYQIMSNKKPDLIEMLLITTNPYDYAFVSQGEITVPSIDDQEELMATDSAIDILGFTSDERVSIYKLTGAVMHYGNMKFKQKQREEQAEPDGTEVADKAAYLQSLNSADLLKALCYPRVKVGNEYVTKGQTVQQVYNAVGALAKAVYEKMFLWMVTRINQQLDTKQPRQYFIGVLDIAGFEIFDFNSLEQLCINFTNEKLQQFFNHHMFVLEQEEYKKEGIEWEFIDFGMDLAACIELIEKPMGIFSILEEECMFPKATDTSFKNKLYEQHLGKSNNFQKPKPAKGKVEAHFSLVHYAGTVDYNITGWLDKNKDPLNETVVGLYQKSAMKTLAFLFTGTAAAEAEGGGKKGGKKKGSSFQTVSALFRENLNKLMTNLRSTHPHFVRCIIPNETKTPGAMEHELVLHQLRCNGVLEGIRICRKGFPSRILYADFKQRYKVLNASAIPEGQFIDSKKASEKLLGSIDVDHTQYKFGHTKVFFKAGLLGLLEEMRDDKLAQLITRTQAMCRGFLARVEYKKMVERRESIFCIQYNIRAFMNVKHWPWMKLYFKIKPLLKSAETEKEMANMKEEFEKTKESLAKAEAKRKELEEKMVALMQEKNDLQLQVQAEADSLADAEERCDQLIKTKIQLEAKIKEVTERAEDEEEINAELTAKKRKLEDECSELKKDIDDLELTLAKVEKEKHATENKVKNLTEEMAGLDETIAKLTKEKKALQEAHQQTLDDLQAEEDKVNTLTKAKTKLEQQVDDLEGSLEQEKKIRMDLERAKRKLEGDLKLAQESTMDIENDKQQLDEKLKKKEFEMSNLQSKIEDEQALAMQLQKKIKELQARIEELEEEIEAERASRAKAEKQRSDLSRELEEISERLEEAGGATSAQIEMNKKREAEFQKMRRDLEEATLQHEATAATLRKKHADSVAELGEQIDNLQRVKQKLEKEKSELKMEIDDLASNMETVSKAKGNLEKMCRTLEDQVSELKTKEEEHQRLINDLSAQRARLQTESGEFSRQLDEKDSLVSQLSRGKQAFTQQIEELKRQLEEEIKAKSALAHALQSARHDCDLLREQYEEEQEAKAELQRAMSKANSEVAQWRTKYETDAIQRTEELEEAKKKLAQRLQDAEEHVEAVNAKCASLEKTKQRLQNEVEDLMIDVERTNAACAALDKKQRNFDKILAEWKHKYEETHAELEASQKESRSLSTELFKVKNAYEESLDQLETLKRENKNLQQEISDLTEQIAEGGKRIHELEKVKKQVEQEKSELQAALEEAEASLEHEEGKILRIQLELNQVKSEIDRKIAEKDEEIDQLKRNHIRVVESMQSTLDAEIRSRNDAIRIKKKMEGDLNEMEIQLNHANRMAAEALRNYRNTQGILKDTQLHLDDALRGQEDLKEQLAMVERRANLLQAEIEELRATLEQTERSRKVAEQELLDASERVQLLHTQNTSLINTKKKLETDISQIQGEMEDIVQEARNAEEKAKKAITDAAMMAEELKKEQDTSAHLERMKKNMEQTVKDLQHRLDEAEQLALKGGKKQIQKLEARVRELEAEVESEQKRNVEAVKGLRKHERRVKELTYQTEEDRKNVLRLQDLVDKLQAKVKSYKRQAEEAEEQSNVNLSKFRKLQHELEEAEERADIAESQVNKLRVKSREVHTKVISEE

| Substance | stoichiometry N [1] | kobs with Ca2+ [2] [s^–1] | kobs without Ca2+ [2] [s^–1] | kobs with Ca2+ [3] [s^–1] | kobs without Ca2+ [3] [s^–1] | kobs with Ca2+ [4] [s^–1] | kobs without Ca2+ [4] [s^–1] | kobs with Ca2+ [5] [s^–1] | kobs without Ca2+ [5] [s^–1] | kobs with Ca2+ [6] [s^–1] | kobs without Ca2+ [6] [s^–1] | kobs with Ca2+ [7] [s^–1] | kobs without Ca2+ [7] [s^–1] |
| --- | --- | --- | --- | --- | --- | --- | --- | --- | --- | --- | --- | --- | --- |
| D175N-Tm (α-tropomyosin homodimer with the D175N mutation in both chains) (natural protein) | 1 |  |  |  |  |  |  |  |  |  |  |  |  |
| myosin subfragment 1 (native rabbit skeletal) (domain or fragment) |  | 8.48 | 2.41 | 8.46 | 2.71 | 8 | 2.31 | 7.58 | 2.31 | 7.68 | 2.21 | 7 | 2 |
